These results are taken from the RNAGym collection of RNA variant scans (doi:10.1073/pnas.2313332121).

B1: TPR t1 (parent)
chain: GACCAAUCUGCCCUCAGAGCUCGAGAACAUCUUCGGAUGCAGAGGAGGCAGGCUUCGGUGGCGCGAUAGCGCCAACGUCCUCAACCUCCAAUGCAUCCCACCACAUGAUGAUGCCUGAAGAGCCUUGGUUUUUUG

The variants in the series derive from B1. The series can be described thus: polymerase ribozyme fitness, log enrichment relative to wild type (log ratio); higher = more active; in vitro selection for triplet polymerase activity. The method, boiled down:
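Fitness is a logarithmic measure of how a genotype enriched relative to the wild type, with replicate averages weighted by inverse variance. The logarithm uses base 2, and enrichment came from Illumina sequencing of input and output libraries. Those libraries were PCR-built, transcribed mutants of each subunit of a heterodimeric triplet polymerase ribozyme, passed through one triplicate in vitro selection round that included frozen incubation at −7 °C, gel excision of extended constructs and streptavidin-bead capture. Genotypes were kept only if they had ≥10 input reads and ≥1 read per output.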
Turning to U9C A27G G45A G57U C115G, the “polymerase ribozyme fitness (log ratio)” value is -3.94.
For the variant U9C C104U, the “polymerase ribozyme fitness (log ratio)” value turned out to be 0.605.
For U9C G44U G63A C89G U109A, the “polymerase ribozyme fitness (log ratio)” value is -7.22.
For the variant U9A G42C C62A C101U, the “polymerase ribozyme fitness (log ratio)” value was -3.42.
As to U9C C40U C62G G117C, the “polymerase ribozyme fitness (log ratio)” value was -5.48.
As to U9C C99A C101U U132C, the “polymerase ribozyme fitness (log ratio)” value was -6.34.
Regarding U9A C98A C104U, the “polymerase ribozyme fitness (log ratio)” value is -3.44.
As for U9A U30C G47U, the “polymerase ribozyme fitness (log ratio)” value was -3.54.
For U9C C72U C102A, the “polymerase ribozyme fitness (log ratio)” value was -1.5.
Then U9A G48C C72U U78C C86A C101A C114U C124U, with -3.88; and U9C G39A G63U, with -1.02.
Next, U9A G39U G48A U109A: -6.15; U9A G77U U131A: 0.362.
Consider U9C G17U C72G A83C, for which the “polymerase ribozyme fitness (log ratio)” value was -1.63.
As to U9A C73A A95G C104A G110U, the “polymerase ribozyme fitness (log ratio)” value was -3.62.
On to U9C C12U G39U C70A A111U C124A, for which the “polymerase ribozyme fitness (log ratio)” value was -5.75.
Next, U9C C62A A75G C94A G110A: -4.36; U9A G36U G63U: -1.27.
Next, U9C G47C G71U: -2.13; U9C C89A: -0.733; U9C G45C U131G: -1.16.
Next, U9C G47C G71U U132C: -2.26; U9C G35U C101A: -5.93.
As for U9C C15G A43U U131C, the “polymerase ribozyme fitness (log ratio)” value is -2.2.
For U9A U21A G45C C70A C82U U116G U132C G135C, the “polymerase ribozyme fitness (log ratio)” value was -1.83.
Regarding U9A C98G, the “polymerase ribozyme fitness (log ratio)” value is -5.74.
For the variant U9A C114U, the “polymerase ribozyme fitness (log ratio)” value was -0.999.
In the case of U9C C11U, the “polymerase ribozyme fitness (log ratio)” value was determined as 0.404.
Take U9A G48U C64U C72A: the “polymerase ribozyme fitness (log ratio)” value came to 0.0767.
U9C C70U C102G: the “polymerase ribozyme fitness (log ratio)” value was -6.28.
Regarding U9A G44C U55C U109G, the “polymerase ribozyme fitness (log ratio)” value was -4.29.
As for U9A U14A A75U C124U G127C, the “polymerase ribozyme fitness (log ratio)” value was -0.619.
U9A G110U G117A: the “polymerase ribozyme fitness (log ratio)” value is -2.51.
Then U9A G113A, with -0.103; and U9C, with 0.614; and U9C C13A A27U G44C G48U C62U U112A, with -2.71.
Consider U9A G36U, for which the “polymerase ribozyme fitness (log ratio)” value is 0.766.
On to U9A G51U G52U U116A, for which the “polymerase ribozyme fitness (log ratio)” value is -3.29.
On to U9A G19C C85A U112A, for which the “polymerase ribozyme fitness (log ratio)” value was -0.364.
Take U9C C94A A100C G127C G135U: the “polymerase ribozyme fitness (log ratio)” value was -3.
Then U9C C73A A74U, with 0.19; and U9C G45A G48U, with -0.16.
Turning to U9C A26G A27U U54A C82G, the “polymerase ribozyme fitness (log ratio)” value was -5.13.
For the variant U9C A46U C53U A84C C88U, the “polymerase ribozyme fitness (log ratio)” value is -1.01.
With U9A G45U G113U G122U, the “polymerase ribozyme fitness (log ratio)” value is -2.61.
With U9C G36C A50U C70A A75U U106A, the “polymerase ribozyme fitness (log ratio)” value is -6.28.
Then U9A C114U G120A C123U, with -2.11.
Turning to U9C A37C C114G G117U, the “polymerase ribozyme fitness (log ratio)” value was -3.29.
With U9A G65C A111U C123U G128A U133C, the “polymerase ribozyme fitness (log ratio)” value was -4.71.
As to U9A G110A A111U C115U, the “polymerase ribozyme fitness (log ratio)” value was -6.7.
Consider U9A G117A, for which the “polymerase ribozyme fitness (log ratio)” value stood at 1.04.
Then U9A G117C, with -1.79.
Next, U9C C99U: -1.75.
In the case of U9A G58C A66G C85U, the “polymerase ribozyme fitness (log ratio)” value was -0.571.
For the variant U9C A41C A118U A119G, the “polymerase ribozyme fitness (log ratio)” value was found to be 0.0807.
Next, U9A G39U G48A C72G C88U C89U G110C: -6.13.
As to U9A C101G, the “polymerase ribozyme fitness (log ratio)” value was -1.55.
On to U9A G10A A46U G69U C79U C102G, for which the “polymerase ribozyme fitness (log ratio)” value was -3.8.
Then U9A U106A, with 0.641; and U9C C12A, with 0.347; and U9C C12G C53G C62U, with -0.499.
Then U9C A37U G110U, with -0.951; and U9A C89G, with -2.53.
Next, U9A C124U: 1.21; U9C C49U: 0.0306; U9A G107A: -4.08.
Regarding U9A G52A G65C U126C, the “polymerase ribozyme fitness (log ratio)” value is -5.92.
Next, U9C C86A C99A: -5.49.
For U9A G39A, the “polymerase ribozyme fitness (log ratio)” value amounted to 0.185.
Next, U9A G51C C86G U87A: -5.3.
Next, U9A G77U: 1.05; U9C C73U C85U G120C: 1.44.
Then U9C C20G C101U G113U, with -0.203.
Consider U9C C22U C34A A43G G77A U106A, for which the “polymerase ribozyme fitness (log ratio)” value is -7.59.
As for U9C G48U C123U, the “polymerase ribozyme fitness (log ratio)” value turned out to be 1.12.
In the case of U9C G36U G47U, the “polymerase ribozyme fitness (log ratio)” value is -2.03.
With U9C C104U G122A, the “polymerase ribozyme fitness (log ratio)” value amounted to 0.29.
Turning to U9C G17U U54C C79A C98U C101A, the “polymerase ribozyme fitness (log ratio)” value was -5.9.
As to U9C C40A U130A, the “polymerase ribozyme fitness (log ratio)” value was -0.631.
Next, U9C G10A G52A G63U: -2.31; U9A U96A C124U: 1.28; U9A G113A U130G: -0.107.
Next, U9C C34U G69U C72U C101A G117A U125A U130G: -6.7.
